Laboratory results from patent EP4682162A1 (Neowise Biotechnology Co., Ltd., dated 2026).

Key:
[1] = molecular target: T1, labeled peptide-MHC (HLA-A*02:01) tetramer (…-HLA-A*02:01 tetramer) (human); assay: tetramer staining of sorted T cell clones, flow cytometry
T1 construct: Labeled tetramer used for flow cytometry staining; also called pMHC; pMHC tetramer

[2] = molecular target: T1, labeled peptide-MHC (HLA-A*02:01) …; assay: pMHC tetramer staining of edited CD8+ T cells, flow cytometry

binding result [1] | binding result [2] | Binder
binds |  | nwTCR-2916 (TCR, V domains shown, TCR on T cells) V domain 1: GQQLNQSPQSMFIQEGEDVSMNCTSSSIFNTWLWYKQDPGEGPVLLIALYKAGELTSNGRLTAQFGITRKDSFLNISASIPSDVGIYFCAGQDDGGSQGNLIFGKGTKLSVKP V domain 2: DSGVTQTPKHLITATGQRVTLRCSPRSGDLSVYWYQQSLDQGLQFLIQYYNGEERAKGNILERFSAQQFPDLHSELNLSSLELGDSALYFCASSPWTSGGDGELFFGEGSRLTVLE
binds |  | nwTCR-3274 (TCR, V domains shown, TCR on T cells) V domain 1: QKEVEQNSGPLSVPEGAIASLNCTYSDRGSQSFFWYRQYSGKSPELIMSIYSNGDKEDGRFTAQLNKASQYVSLLIRDSQPSDSATYLCAVVSGGYNKLIFGAGTRLAVHP V domain 2: EPEVTQTPSHQVTQMGQEVILRCVPISNHLYFYWYRQILGQKVEFLVSFYNNEISEKSEIFDDQFSVERPDGSNFTLKIRSTKLEDSAMYFCASSEGWGGTEAFFGQGTRLTVVE
binds |  | nwTCR-2970 (TCR, V domains shown, TCR on T cells) V domain 1: QQPVQSPQAVILREGEDAVINCSSSKALYSVHWYRQKHGEAPVFLMILLKGGEQKGHDKISASFNEKKQQSSLYLTASQLSYSGTYFCGTEFRNDYKLSFGAGTTVTVRA V domain 2: EAQVTQNPRYLITVTGKKLTVTCSQNMNHEYMSWYRQDPGLGLRQIYYSMNVEVTDKGDVPEGYKVSRKEKRNFPLILESPSPNQTSLYFCASSPGTGGYGYTFGSGTRLTVVE
binds |  | nwTCR-1954 (TCR, V domains shown, TCR on T cells) V domain 1: QKEVEQNSGPLSVPEGAIASLNCTYSDRGSQSFFWYRQYSGKSPELIMSIYSNGDKEDGRFTAQLNKASQYVSLLIRDSQPSDSATYLCAVLRSNDYKLSFGAGTTVTVRA V domain 2: EAQVTQNPRYLITVTGKKLTVTCSQNMNHEYMSWYRQDPGLGLRQIYYSMNVEVTDKGDVPEGYKVSRKEKRNFPLILESPSPNQTSLYFCASSPGTSGNEQFFGPGTRLTVLE
binds |  | nwTCR-3095 (TCR, V domains shown, TCR on T cells) V domain 1: DQQVKQNSPSLSVQEGRISILNCDYTNSMFDYFLWYKKYPAEGPTFLISISSIKDKNEDGRFTVFLNKSAKHLSLHIVPSQPGDSAVYFCAAFASDSNYQLIWGAGTKLIIKP V domain 2: DTAVSQTPKYLVTQMGNDKSIKCEQNLGHDTMYWYKQDSKKFLKIMFSYNNKELIINETVPNRFSPKSPDKAHLNLHINSLELGDSAVYFCASSPWTSGGNGELFFGEGSRLTVLE
binds |  | nwTCR-3272 (TCR, V domains shown, TCR on T cells) V domain 1: QKEVEQNSGPLSVPEGAIASLNCTYSDRGSQSFFWYRQYSGKSPELIMSIYSNGDKEDGRFTAQLNKASQYVSLLIRDSQPSDSATYLCAVPSGNMLTFGGGTRLMVKP V domain 2: DVKVTQSSRYLVKRTGEKVFLECVQDMDHENMFWYRQDPGLGLRLIYFSYDVKMKEKGDIPEGYSVSREKKERFSLILESASTNQTSMYLCASSSATSGSGEQYFGPGTRLTVTE
binds |  | nwTCR-3028 (TCR, V domains shown, TCR on T cells) V domain 1: SQQGEEDPQALSIQEGENATMNCSYKTSINNLQWYRQNSGRGLVHLILIRSNEREKHSGRLRVTLDTSKKSSSLLITASRAADTASYFCATDVKSSYKLIFGSGTRLLVRP V domain 2: AAGVIQSPRHLIKEKRETATLKCYPIPRHDTVYWYQQGPGQDPQFLISFYEKMQSDKGSIPDRFSAQQFSDYHSELNMSSLELGDSALYFCASSLGLLGNEQFFGPGTRLTVLE
binds |  | nwTCR-3125 (TCR, V domains shown, TCR on T cells) V domain 1: QKEVEQNSGPLSVPEGAIASLNCTYSDRVSQSFFWYRQYSGKSPELIMSIYSNGDKEDGRFTAQLNKASQYVSLLIRDSQPSDSATYLCALVSGTYKYIFGTGTRLKVLA V domain 2: DTAVSQTPKYLVTQMGNDKSIKCEQNLGHDTMYWYKQDSKKFLKIMFSYNNKELIINETVPNRFSPKSPDKAHLNLHINSLELGDSAVYFCASSPGLAYEQYFGPGTRLTVTE
 | binds | nwTCR-2159 (TCR, V domains shown, TCR on T cells) V domain 1: QQPVQSPQAVILREGEDAVINCSSSKALYSVHWYRQKHGEAPVFLMILLKGGEQKGHDKISASFNEKKQQSSLYLTASQLSYSGTYFCGTESGRGSTLGRLYFGRGTQLTVWP V domain 2: DSGVTQTPKHLITATGQRVTLRCSPRSGDLSVYWYQQSLDQGLQFLIQYYNGEERAKGNILERFSAQQFPDLHSELNLSSLELGDSALYFCASSPWTSGSYEQYFGPGTRLTVTE
 | binds | nwTCR-2006 (TCR, V domains shown, TCR on T cells) V domain 1: AQSVTQLDSHVSVSEGTPVLLRCNYSSSYSPSLFWYVQHPNKGLQLLLKYTSAATLVKGINGFEAEFKKSETSFHLTKPSAHMSDAAEYFCVVSITGFQKLVFGTGTRLLVSP V domain 2: GAVVSQHPSRVICKSGTSVKIECRSLDFQATTMFWYRQFPKQSLMLMATSNEGSKATYEQGVEKDKFLINHASLTLSTLTVTSAHPEDSSFYICSATEDNEKLFFGSGTQLSVLE
 | binds | nwTCR-2157 (TCR, V domains shown, TCR on T cells) V domain 1: QKEVEQNSGPLSVPEGAIASLNCTYSDRGSQSFFWYRQYSGKSPELIMFIYSNGDKEDGRFTAQLNKASQYVSLLIRDSQPSDSATYLCAVPGGTSYGKLTFGQGTILTVHP V domain 2: DTAVSQTPKYLVTQMGNDKSIKCEQNLGHDTMYWYKQDSKKFLKIMFSYNNKELIINETVPNRFSPKSPDKAHLNLHINSLELGDSAVYFCASSQGISGNTIYFGEGSWLTVVE
 | binds | nwTCR-2169 (TCR, V domains shown, TCR on T cells) V domain 1: SQQGEEDPQALSIQEGENATMNCSYKTSINNLQWYRQNSGRGLVHLILIRSNEREKHSGRLRVTLDTSKKSSSLLITASRAADTASYFCATLTLNDYKLSFGAGTTVTVRA V domain 2: EAQVTQNPRYLITVTGKKLTVTCSQNMNHEYMSWYRQDPGLGLRQIYYSMNVEVTDKGDVPEGYKVSRKEKRNFPLILESPSPNQTSLYFCATQWASGSTDTQYFGPGTRLTVLE
binds |  | nwTCR-3173 (TCR, V domains shown, TCR on T cells) V domain 1: SQQGEEDPQALSIQEGENATMNCSYKTSINNLQWYRQNSGRGLVHLILIRSNEREKHSGRLRVTLDTSKKSSSLLITASRAADTASYFCATYANDYKLSFGAGTTVTVRA V domain 2: EAQVTQNPRYLITVTGKKLTVTCSQNMNHEYMSWYRQDPGLGLRQIYYSMNVEVTDKGDVPEGYKVSRKEKRNFPLILESPSPNQTSLYFCASSAGTGGFVGYTFGSGTRLTVVE
binds |  | nwTCR-3273 (TCR, V domains shown, TCR on T cells) V domain 1: SQELEQSPQSLIVQEGKNLTINCTSSKTLYGLYWYKQKYGEGLIFLMMLQKGGEEKSHEKITAKLDEKKQQSSLHITASQPSHAGIYLCGAVPINDYKLSFGAGTTVTVRA V domain 2: EAQVTQNPRYLITVTGKKLTVTCSQNMNHEYMSWYRQDPGLGLRQIYYSMNVEVTDKGDVPEGYKVSRKEKRNFPLILESPSPNQTSLYFCASSIDSGSSYNEQFFGPGTRLTVLE
binds |  | nwTCR-1953 (TCR, V domains shown, TCR on T cells) V domain 1: DAKTTQPNSMESNEEEPVHLPCNHSTISGTDYIHWYRQLPSQGPEYVIHGLTSNVNNRMASLAIAEDRKSSTLILHRATLRDAAVYYCILRAGGSGDKLTFGTGTRLAVRP V domain 2: DTEVTQTPKHLVMGMTNKKSLKCEQHMGHRAMYWYKQKAKKPPELMFVYSYEKLSINESVPSRFSPECPNSSLLNLHLHALQPEDSALYLCASSQDPFWGAGELFFGEGSRLTVLE
binds |  | nwTCR-3271 (TCR, V domains shown, TCR on T cells) V domain 1: DQQVKQNSPSLSVQEGRISILNCDYTNSMFDYFLWYKKYPAEGPTFLISISSIKDKNEDGRFTVFLNKSAKHLSLHIVPSQPGDSAVYFCAAKPDKLIFGTGTRLQVFP V domain 2: SAVISQKPSRDICQRGTSLTIQCQVDSQVTMMFWYRQQPGQSLTLIATANQGSEATYESGFVIDKFPISRPNLTFSTLTVSNMSPEDSSIYLCSVWGAGLAIYNEQFFGPGTRLTVLE
